Source: publication PMC7064531, “Structure of E3 ligase E6AP with a proteasome-binding site provided by substrate receptor hRpn10” (Nature Communications, 2020)

Columns and labels:
Conditions in all cases: both partners purified
GST-hRpn10^305–377 = target: T1, GST-hRpn10^305–377 (human, UniProt P55036 305-377); assay: SPR; Biacore T200; GST-hRpn10 305-377 captured (800 RU) by anti-GST antibody on a CM5 chip, GST on the reference cell; E6AP AZUL 5-250 nM in HBS-P+ with 10 μM zinc sulfate, single cycle kinetics, triplicate
T1 construct: pGEX-6P-3; a PreScission site lies between GST and hRpn10; source: E. coli Rosetta 2 (DE3), purified (glutathione sepharose, glutathione elution, SEC); not shown: GST, N-terminal, kept
T1 sequence (looked up): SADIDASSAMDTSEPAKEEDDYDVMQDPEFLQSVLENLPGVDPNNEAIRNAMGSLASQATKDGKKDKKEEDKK

[1] = target: T2, hRpn10^305–377 (RAZUL, Rpn10 AZUL-binding domain) (human, UniProt P55036 305-377); assay: ITC; 25 °C, MicroCal iTC200; E6AP AZUL injected into hRpn10 305-377 (0.0405 mM) or hRpn10 322-366 peptides (0.01 mM) in the cell; 10 mM MOPS pH 6.5, 50 mM NaCl, 5 mM DTT, 10 μM zinc sulfate; one-site fit
T2 construct: Isotope-labelled (15N, 13C, 2H) in some NMR samples; also called hRpn10 RAZUL; source: E. coli Rosetta 2 (DE3), purified (glutathione sepharose, PreScission cleavage, SEC); not shown: GST, N-terminal, cleaved
T2 sequence (looked up): T1 sequence (looked up)

[2] = target: T3, full-length E6AP (Isoform II) (human, UniProt Q05086 1-875); assay: pull-down; 2 nmol His-tagged hRpn10 construct on Ni-NTA agarose, 200 pmol E6AP for 1 h; 10 mM MOPS pH 6.5, 50 mM NaCl, 5 mM 2-mercaptoethanol, 10 μM zinc sulfate; Coomassie staining
T3 construct: E6AP/UBE3A, isoform II, full length; catalytic cysteine C843 in isoform II; also called UBE3A; source: bought: UBPBio K1411

ubiquitin = ubiquitin (UniProt P0CG48 1-76); assay: NMR titration; 2D NMR on 15N-hRpn10 196-377, ubiquitin added; 25 °C, 10 mM MOPS pH 6.5, 50 mM NaCl, 5 mM DTT, 10 μM zinc sulfate

T3 sequence (Q05086 whole entry, canonical isoform): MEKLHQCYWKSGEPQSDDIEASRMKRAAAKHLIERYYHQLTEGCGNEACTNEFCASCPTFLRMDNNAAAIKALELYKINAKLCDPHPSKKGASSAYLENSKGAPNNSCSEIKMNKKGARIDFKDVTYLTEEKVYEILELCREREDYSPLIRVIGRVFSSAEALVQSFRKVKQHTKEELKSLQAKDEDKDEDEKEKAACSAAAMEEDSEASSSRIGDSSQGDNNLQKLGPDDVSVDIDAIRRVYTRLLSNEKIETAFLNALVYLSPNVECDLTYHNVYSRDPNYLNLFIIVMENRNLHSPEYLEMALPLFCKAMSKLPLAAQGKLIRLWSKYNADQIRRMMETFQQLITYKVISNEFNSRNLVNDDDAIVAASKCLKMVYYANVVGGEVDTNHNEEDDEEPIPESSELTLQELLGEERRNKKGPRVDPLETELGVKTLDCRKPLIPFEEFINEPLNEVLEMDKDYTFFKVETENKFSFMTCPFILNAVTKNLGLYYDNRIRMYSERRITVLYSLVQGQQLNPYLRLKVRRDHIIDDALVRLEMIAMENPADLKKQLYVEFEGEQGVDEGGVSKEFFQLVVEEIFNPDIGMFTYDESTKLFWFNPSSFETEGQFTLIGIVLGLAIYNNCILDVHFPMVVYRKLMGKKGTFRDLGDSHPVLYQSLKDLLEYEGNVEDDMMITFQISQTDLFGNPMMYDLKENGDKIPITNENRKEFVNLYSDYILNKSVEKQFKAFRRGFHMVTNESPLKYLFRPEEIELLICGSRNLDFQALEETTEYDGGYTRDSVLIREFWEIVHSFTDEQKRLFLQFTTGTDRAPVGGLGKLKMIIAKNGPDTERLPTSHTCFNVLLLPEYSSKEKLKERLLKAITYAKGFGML

B1: E6AP AZUL (amino-terminal zinc-binding domain of ubiquitin E3a ligase), amino acids 24 to 87 (domain or fragment, human, UniProt Q05086 24-87, looked up)
chain: MKRAAAKHLIERYYHQLTEGCGNEACTNEFCASCPTFLRMDNNAAAIKALELYKINAKLCDPHP
notes: E6AP/UBE3A AZUL domain, human, amino acids 24 to 87, subcloned from HA-E6AP isoform II; zinc sulfate in the buffers; Isotope-labelled (15N, 13C) in some NMR samples; also called AZUL domain; source: E. coli BL21 (DE3), purified (Ni-NTA, thrombin cleavage, SEC); not shown: polyhistidine tag, N-terminal, cleaved
Work on B1 yielded a Kd (GST-hRpn10^305–377) of 8.1 nM and a Kd [1] of 11.6 nM.

B2: His-hRpn10^full-length (natural protein, human, UniProt P55036 1-377, looked up)
chain: MVLESTMVCVDNSEYMRNGDFLPTRLQAQQDAVNIVCHSKTRSNPENNVGLITLANDCEVLTTLTPDTGRILSKLHTVQPKGKITFCTGIRVAHLALKHRQGKNHKMRIIAFVGSPVEDNEKDLVKLAKRLKKEKVNVDIINFGEEEVNTEKLTAFVNTLNGKDGTGSHLVTVPPGPSLADALISSPILAGEGGAMLGLGASDFEFGVDPSADPELALALRVSMEEQRQRQEEEARRAAAASAAEAGIATTGTEDSDDALLKMTISQQEFGRTGLPDLSSMTEEEQIAYAMQMSLQGAEFGQAESADIDASSAMDTSEPAKEEDDYDVMQDPEFLQSVLENLPGVDPNNEAIRNAMGSLASQATKDGKKDKKEEDKK
notes: human Rpn10 (hRpn10/PSMD4/S5a), full length; pET11d plasmid, a gift from Dr Fumio Hanaoka; also called His6-hRpn10^full-length; source: E. coli BL21 (DE3), purified (Ni-NTA, imidazole elution, SEC); not shown: His6, N-terminal, kept
B2: binds [2].

B3: His-hRpn10^196–377 (domain or fragment, human, UniProt P55036 196-377, looked up)
chain: MLGLGASDFEFGVDPSADPELALALRVSMEEQRQRQEEEARRAAAASAAEAGIATTGTEDSDDALLKMTISQQEFGRTGLPDLSSMTEEEQIAYAMQMSLQGAEFGQAESADIDASSAMDTSEPAKEEDDYDVMQDPEFLQSVLENLPGVDPNNEAIRNAMGSLASQATKDGKKDKKEEDKK
notes: pET14b with a thrombin site; the methods say that it was eluted with the His-tag intact; 15N-labelled for the NMR experiment with ubiquitin; source: E. coli BL21 (DE3), purified (Ni-NTA, imidazole elution, SEC); not shown: polyhistidine tag, N-terminal, kept
B3: binds (ubiquitin); binds [2].
